# B1: histamine dehydrogenase (HADH) (Pimelobacter simplex) (protein)
# chain: MTEQPAVAAPYDVLFEPVQIGPFTTKNRFYQVPHCNGMGYRDPSAQASMRKIKAEGGWSAVCTEQVEIHATSDIAPFIELRIWDDQDLPALKRIADAIHEGGGLAGIELAHNGMNAPNQLSRETPLGPGHLPVAPDTIAPIQARAMTKQDIDDLRRWHRNAVRRSIEAGYDIVYVYGAHGYSGVHHFLSKRYNQRTDEYGGSLENRMRLLRELLEDTLDECAGRAAVACRITVEEEIDGGITREDIEGVLRELGELPDLWDFAMGSWEGDSVTSRFAPEGRQEEFVAGLKKLTTKPVVGVGRFTSPDAMVRQIKAGILDLIGAARPSIADPFLPNKIRDGRLNLIRECIGCNICVSGDLTMSPIRCTQNPSMGEEWRRGWHPERIRAKESDARVLVVGAGPSGLEAARALGVRGYDVVLAEAGRDLGGRVTQESALPGLSAWGRVKEYREAVLAELPNVEIYRESPMTGDDIVEFGFEHVITATGATWRTDGVARFHTTALPIAEGMQVLGPDDLFAGRLPDGKKVVVYDDDHYYLGGVVAELLAQKGYEVSIVTPGAQVSSWTNNTFEVNRIQRRLIENGVARVTDHAVVAVGAGGVTVRDTYASIERELECDTVVMVTARLPREELYLDLVARRDAGEIASVRGIGDAWAPGTIAAAVWSGRRAAEEFDAVLPSNDEVPFRREVTQLA
# Substrate: NCCc1c[nH]cn1
# Test: purified protein
# Format: biochemical, Pimelobacter simplex
protein,measurement,value
B1,Km,24 µM
same,kcat,9.8 s⁻¹
